Data published in patent US20180353627A1, “RADIOLABELED DISINTEGRINS AS BRACHYTHERAPY AGENTS” (UNIVERSITY OF SOUTHERN CALIFORNIA, priority 2015, published 2018).
“Also recorded” adds a separate entry of the source.

Experiments:
[1] = Immune response after intracranial injection; assay type: in vivo, rodents
Text: (§1) All previous work was done with CN, the precursor of VCN. Applicants previously determined whether CN induces hemorrhage in healthy, tumor-free rats.

[2] = Hemorrhage after brain injection in healthy, tumor-free rats; assay type: in vivo; conditions: no difference to PBS-injected brains
Text: as §1

GBM = experiment: Survival study, intratumoral delivery via Alzet pump in GBM-bearing animals; assay type: in vivo
C6 rat GBM cells = experiment: Gamma camera biodistribution after intracranial injection, C6 rat GBM; assay type: in vivo, rats; conditions: given intracranially as ^131I-CN
Experimental: A Gamma camera was used to determine biodistribution of ^131I-CN in rats after intracranial injection of C6 rat GBM cells, and tumors allowed to grow for 7 days. Two tumor-free rats were also administered ^131I-CN intracranially. Whole-body distribution of radioactivity was imaged at 0 and 24 hours after injection of ^131I-CN.
CN is localized to the brain in all animals at 0 hours. […] This retention was attributable to CN's specific binding to integrin αvβ3, which has been shown previously by us and others to be overexpressed in glioma cells, but not in normal brain tissue. Thus, CN delivered intratumorally binds to the expected integrins in GBM in vivo and accumulates specifically at the site of the tumor. Based on structural and functional similarities between VCN and CN, we anticipate identical findings with VCN for GBM localization.

α5β1 = α5β1 (Homo sapiens, UniProt P05556+P08648); experiment: Fluorescence polarization binding of FITC-labeled disintegrins to soluble integrin α5β1; conditions: VCN with incorporated echistatin sequence
Text: FIG. 3 depicts amino acid sequences of this disclosure. Mass spectrometry and crystallographic data confirmed that CN (SEQ ID. NO. 1) is a homodimer with the 2 chains oriented in an antiparallel fashion and held together by 2 inter-chain disulfide bonds. […] Recombinant CN is SEQ ID NO. 2. VCN is SEQ ID NO. 3. Echistatin is SEQ ID NO. 4.
Further, ^131I-VCN retained essentially 100% radioiodine during dialysis against phosphate buffered saline, pH 7.4, for 15 days. […] Binding kinetics were calculated from the fluorescence anisotropy data generated by steady state binding of FITC-labeled disintegrins to either purified (αvβ3, αvβ5) or recombinant (α5β1) functional human integrins. The dissociation constants for interactions of either CN or VCN with soluble integrins were determined by Scatchard analysis using a non-linear curve fit.

[3] = Toxicology study, single i.v. escalating doses in rats; assay type: in vivo; conditions: single i.v. 3 mg/kg to 75 mg/kg, 14 days
Experimental: Rats were evaluated for signs of physical toxicity or stress and sacrificed after 14 days.

U87 GBM cells = experiment: Intracranial U87 GBM tumor model, Alzet pump delivery to the brain; assay type: in vivo; conditions: 40 μg daily over 2 weeks via Alzet pump, U87 GBM in nude mice
Text: Finally, in an intracranial tumor model, U87 GBM cells were stereotactically implanted into nude mice. […] After 2 weeks the mice were euthanized and their brains removed. The average tumor size of animals treated with PBS was several times larger than animals treated with VCN.

platelet aggregation = experiment: Inhibition of platelet aggregation (bioactivity after radioiodination); assay type: cell-based; conditions: radioiodinated VCN

Chain of α5β1 (P08648 42-894 limits assumed): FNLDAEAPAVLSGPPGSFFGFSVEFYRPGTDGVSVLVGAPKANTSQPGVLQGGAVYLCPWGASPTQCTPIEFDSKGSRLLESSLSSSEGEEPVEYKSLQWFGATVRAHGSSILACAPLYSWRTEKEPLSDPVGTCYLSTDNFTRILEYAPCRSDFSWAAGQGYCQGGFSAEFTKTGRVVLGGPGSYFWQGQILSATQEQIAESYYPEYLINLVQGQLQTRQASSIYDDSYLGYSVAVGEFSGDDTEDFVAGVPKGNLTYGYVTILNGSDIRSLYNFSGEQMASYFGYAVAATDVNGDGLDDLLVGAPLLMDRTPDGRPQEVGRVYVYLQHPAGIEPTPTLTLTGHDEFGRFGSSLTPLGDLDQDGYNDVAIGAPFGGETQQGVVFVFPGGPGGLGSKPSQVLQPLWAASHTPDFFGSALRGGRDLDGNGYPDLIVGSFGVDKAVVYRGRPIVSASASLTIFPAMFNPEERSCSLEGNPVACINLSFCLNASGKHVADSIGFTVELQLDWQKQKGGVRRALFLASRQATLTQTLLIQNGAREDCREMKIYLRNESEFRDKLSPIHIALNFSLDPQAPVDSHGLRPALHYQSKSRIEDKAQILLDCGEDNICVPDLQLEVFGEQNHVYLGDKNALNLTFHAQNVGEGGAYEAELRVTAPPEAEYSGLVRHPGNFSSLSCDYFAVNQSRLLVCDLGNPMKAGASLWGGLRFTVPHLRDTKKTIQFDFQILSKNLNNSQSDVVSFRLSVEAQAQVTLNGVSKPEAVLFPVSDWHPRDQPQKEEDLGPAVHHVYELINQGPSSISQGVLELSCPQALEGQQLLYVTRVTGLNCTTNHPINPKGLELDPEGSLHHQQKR
Chain of α5β1 (P08648 895-995 partner limits assumed): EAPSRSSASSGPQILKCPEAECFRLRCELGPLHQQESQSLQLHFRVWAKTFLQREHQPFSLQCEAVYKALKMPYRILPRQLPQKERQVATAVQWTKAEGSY
Chain of α5β1 (P05556 21-728 limits assumed): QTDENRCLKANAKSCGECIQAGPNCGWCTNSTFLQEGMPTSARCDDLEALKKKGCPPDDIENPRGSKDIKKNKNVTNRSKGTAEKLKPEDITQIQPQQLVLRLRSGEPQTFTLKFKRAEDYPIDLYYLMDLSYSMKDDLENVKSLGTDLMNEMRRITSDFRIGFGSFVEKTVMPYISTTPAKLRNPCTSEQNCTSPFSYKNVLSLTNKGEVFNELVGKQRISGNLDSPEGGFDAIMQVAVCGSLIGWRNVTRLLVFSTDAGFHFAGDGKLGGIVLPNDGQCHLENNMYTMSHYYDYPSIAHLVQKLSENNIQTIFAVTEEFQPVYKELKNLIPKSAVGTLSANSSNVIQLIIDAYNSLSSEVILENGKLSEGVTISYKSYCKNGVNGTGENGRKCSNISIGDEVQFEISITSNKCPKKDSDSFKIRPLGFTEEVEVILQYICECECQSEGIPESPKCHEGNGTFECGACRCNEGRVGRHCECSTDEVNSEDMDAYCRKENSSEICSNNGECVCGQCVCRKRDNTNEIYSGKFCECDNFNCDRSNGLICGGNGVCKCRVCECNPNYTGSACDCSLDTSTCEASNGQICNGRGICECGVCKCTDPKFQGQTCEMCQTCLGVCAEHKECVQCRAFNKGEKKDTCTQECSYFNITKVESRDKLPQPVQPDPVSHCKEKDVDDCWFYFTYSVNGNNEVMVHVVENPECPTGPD

Substance | immune response ([1]; intracranial 50 μg, tumor-bearing (U87 GBM) or tumor-free rodents, 7 days) | immune response ([1]; intracranial 150 μg, after 7, 14 or 21 days) | hemorrhage [2] | survival (GBM) | radioactivity in the brain at 24 hours (C6 rat GBM cells; tumor-bearing (C6) rats) | radioactivity in the brain at 24 hours (C6 rat GBM cells; tumor-free rats) | improvement of binding affinity to integrin a5b1 (α5β1) | adverse effects [3] | behavior, gross and microscopic examination [3] | body weight gain [3] | hematological parameters [3] | tumor growth (tumor size versus PBS) (U87 GBM cells) | retention of bioactivity after radioiodination, assessed by inhibition of platelet aggregation (platelet aggregation)
contortrostatin [CN] | no evidence of an immune response | no evidence of an immune response | minimal and localized to the injection needle track | significantly (p<0.008) improved survival | the vast majority of radioactivity was still retained | disappeared from the brains of tumor-free rats | – | – | – | – | – | – | –
vicrostatin [VCN] | – | – | – | – | – | – | approximately 13 fold | no adverse effects observed | no changes in behavior, or in gross or microscopic examination | gained weight indistinguishable from control | no significant differences in hematological parameters | significant (p<0.001) attenuation of tumor growth | full retention of bioactivity; also recorded: full retention of biological activity
